Results: the supplement of paper PMC10567573

B1: TMEM106C (parent)
chain: FTGRDSITCLTCQGTGYIPTEQVN

Variants of: B1
Assay: protein stability index of a GFP-peptide fusion (GPS, HEK-293T) (PSI 1-6); higher = more stable
Settings: c terminus: a fixed tail appended
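Note: lentivirally expressed fusions sorted by FACS into six bins by GFP to DsRed ratio, PSI derived from sequencing read proportions per bin multiplied by bin number.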

Variant | protein stability index
FTGRVSITCLTCQGTGYIPTEQVN | 4.33
FTGRRSITCLTCQGTGYIPTEQVN | 1.87
FTGRKSITCLTCQGTGYIPTEQVN | 1.84
FTGRQSITCLTCQGTGYIPTEQVN | 2.17
FTGRESITCLTCQGTGYIPTEQVN | 1.96
FTGRSSITCLTCQGTGYIPTEQVN | 2.29
FTGRTSITCLTCQGTGYIPTEQVN | 2.15
FTGRHSITCLTCQGTGYIPTEQVN | 2.82
FTGRASITCLTCQGTGYIPTEQVN | 1.94
FGGRDSITCLTCQGTGYIPTEQVN | 2.84
FVGRDSITCLTCQGTGYIPTEQVN | 2.87
FCGRDSITCLTCQGTGYIPTEQVN | 2.63
FYGRDSITCLTCQGTGYIPTEQVN | 3.3
FHGRDSITCLTCQGTGYIPTEQVN | 3.35
FLGRDSITCLTCQGTGYIPTEQVN | 2.61
FNGRDSITCLTCQGTGYIPTEQVN | 3.32
FTGRDSITCFTCQGTGYIPTEQVN | 3
FTGRDSITCMTCQGTGYIPTEQVN | 1.91
FTGRDSITCQTCQGTGYIPTEQVN | 3.17
FTGRDSITCHTCQGTGYIPTEQVN | 2.84
FTGRDSITCPTCQGTGYIPTEQVN | 4.51
FTGRDSITCTTCQGTGYIPTEQVN | 2.65
FTGRDSITCGTCQGTGYIPTEQVN | 2.02
FTGRDSITCYTCQGTGYIPTEQVN | 3.42

Variant | protein stability index
FTGRDSITCATCQGTGYIPTEQVN | 2.29
FTGRDSITCKTCQGTGYIPTEQVN | 2.7
FTGRDSITCITCQGTGYIPTEQVN | 1.98
FTGRDSITCLTCQGTAYIPTEQVN | 1.92
FTGRDSITCLTCQGTLYIPTEQVN | 2.13
FTGRDSITCLTCQGTSYIPTEQVN | 2.05
FTGRDSITCLTCQGTEYIPTEQVN | 1.7
FTGRDSITCLTCQGTIYIPTEQVN | 2.94
FTGRDSITCLTCQGTQYIPTEQVN | 1.6
FTGRDSITCLTCQGTRYIPTEQVN | 2.21
FTGRDDITCLTCQGTGYIPTEQVN | 2.58
FTGRDGITCLTCQGTGYIPTEQVN | 1.9
FTGRDQITCLTCQGTGYIPTEQVN | 2.05
FTGRDEITCLTCQGTGYIPTEQVN | 2.73
FTGRDFITCLTCQGTGYIPTEQVN | 2.38
FTGRDVITCLTCQGTGYIPTEQVN | 2.5
FTGRDKITCLTCQGTGYIPTEQVN | 2.34
FTGRDLITCLTCQGTGYIPTEQVN | 2.16
FTGRDHITCLTCQGTGYIPTEQVN | 2.43
FTGRDSITCLTCQGTGYIPPEQVN | 1.74
FTGRDSITCLTCQGTGYIPDEQVN | 2.56
FTGRDSITCLTCQGTGYIPCEQVN | 1.83
FTGRDSITCLTCQGTGYIPWEQVN | 1.71
FTGRDSITCLTCQGTGYIPREQVN | 2.27

Variant | protein stability index
FTGRDSITCLTCQGTGYIPIEQVN | 1.99
FTGRDSITCLTCQGTGYIPHEQVN | 1.92
FTVRDSITCLTCQGTGYIPTEQVN | 2.99
FTPRDSITCLTCQGTGYIPTEQVN | 2.76
FTKRDSITCLTCQGTGYIPTEQVN | 3.49
FTNRDSITCLTCQGTGYIPTEQVN | 2.12
FTHRDSITCLTCQGTGYIPTEQVN | 1.7
FTERDSITCLTCQGTGYIPTEQVN | 2.7
FTRRDSITCLTCQGTGYIPTEQVN | 2.84
FTDRDSITCLTCQGTGYIPTEQVN | 1.85
FTGDDSITCLTCQGTGYIPTEQVN | 3.14
FTGPDSITCLTCQGTGYIPTEQVN | 2.41
FTGADSITCLTCQGTGYIPTEQVN | 1.86
FTGFDSITCLTCQGTGYIPTEQVN | 2.52
FTGIDSITCLTCQGTGYIPTEQVN | 2.48
FTGSDSITCLTCQGTGYIPTEQVN | 3.04
FTGRDSITCLTCQGTGYIPTEIVN | 1.95
FTGRDSITCLTCQGTGYIPTEWVN | 1.88
FTGRDSITCLTCQGTGYIPTEVVN | 2.16
FTGRDSITCLTCQGTGYIPTERVN | 2.13
FTGRDSITCLTCQGTGYIPTETVN | 2.2
FTGRDSITCLTCQGTGYIPTEPVN | 1.73
FTGRDSITCLTCQGTGYIPTEYVN | 1.9
FTGRDSITCLTCQGTGYIPTEMVN | 2.42

Variant | protein stability index
FTGRDSITCLTCDGTGYIPTEQVN | 1.83
FTGRDSITCLTCFGTGYIPTEQVN | 2.17
FTGRDSITCLTCNGTGYIPTEQVN | 2.39
FTGRDSITCLTCCGTGYIPTEQVN | 1.53
FTGRDSITCLTCPGTGYIPTEQVN | 1.94
FTGRDSITCLTCVGTGYIPTEQVN | 2
FTGRDSITCLTCSGTGYIPTEQVN | 1.92
FTGRDSITCLTCKGTGYIPTEQVN | 1.96
FTGRDSITCLTCEGTGYIPTEQVN | 1.95
FTGRDSITCLTCYGTGYIPTEQVN | 2.38
FTGRDSITCLTCQGTGYIKTEQVN | 2
FTGRDSITCLTCQGTGYIFTEQVN | 2.43
FTGRDSITCLTCQGTGYIWTEQVN | 2.29
FTGRDSITCLTCQGTGYISTEQVN | 2.23
FTGRDSITCLTCQGTGYIATEQVN | 2.04
FTGRDSITCLTCQGTGYIDTEQVN | 1.76
FTGRDSITCLTCQGTGYIVTEQVN | 2.67
FTGRDSITCLTCQGTGSIPTEQVN | 1.68
FTGRDSITCLTCQGTGNIPTEQVN | 1.93
FTGRDSITCLTCQGTGAIPTEQVN | 1.8
FTGRDSITCLTCQGTGQIPTEQVN | 1.79
FTGRDSITCLTCQGTGKIPTEQVN | 1.94
